{"source": "the RNAGym collection of RNA variant scans (doi:10.1093/nar/gkz1192)", "parents": {"B1": {"name": "CPEB3 Ribozyme (parent)", "chain": "UAACAGGGGGCCACAGCAGAAGCGUUCACGUCGCAGCCCCUGUCAGAUUCUGGUGAAUCUGCGAAUUCUGCUGUAUAUCUC"}}}
{"variants_of": "B1", "experiment": "self-cleavage, relative activity (ratio to wild type); higher = more cleavage; in vitro, sequencing", "in_short": "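For each CPEB3 ribozyme variant, relative activity is its cleaved/total read fraction divided by the unmutated ribozyme's. Barcoded error-prone PCR libraries were transcribed by T7 RNA polymerase (5 hours, 37°C) and held in DNase I for 15 min before an EDTA stop, with cleavage occurring throughout. Template-switching reverse transcription and Illumina sequencing were used to read the RNAs. A 5-read minimum applied, and results are the mean of three batches.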"}
{"variant": "U26G A45U", "self-cleavage": 0.17}
{"variant": "U26G A45C", "self-cleavage": 0.09}
{"variant": "C27A U54C", "self-cleavage": 0.56}
{"variant": "U26G C62A", "self-cleavage": 0.13}
{"variant": "U26G A75G", "self-cleavage": 0.16}
{"variant": "C27G U69G", "self-cleavage": 0.14}
{"variant": "C27G U69C", "self-cleavage": 0.24}
{"variant": "C27U A64U", "self-cleavage": 0.26}
{"variant": "C27U A64G", "self-cleavage": 0.24}
{"variant": "C27A A56U", "self-cleavage": 0.09}
{"variant": "A28C C79U", "self-cleavage": 0.63}
{"variant": "A28G C62A", "self-cleavage": 0.23}
{"variant": "A28G C62G", "self-cleavage": 0.21}
{"variant": "A28G C62U", "self-cleavage": 0.27}
{"variant": "U26G A35U", "self-cleavage": 0.13}
{"variant": "U26G A35G", "self-cleavage": 0.8}
{"variant": "A28C A75G", "self-cleavage": 0.49}
{"variant": "C27U U43C", "self-cleavage": 0.21}
{"variant": "C27U U43A", "self-cleavage": 0.29}
{"variant": "U26G C68U", "self-cleavage": 0.35}
{"variant": "C27A U60C", "self-cleavage": 0.18}
{"variant": "A28G C50G", "self-cleavage": 0.29}
{"variant": "A28G C50A", "self-cleavage": 0.48}
{"variant": "A28G C50U", "self-cleavage": 0.48}
{"variant": "C27A U67A", "self-cleavage": 0.18}
{"variant": "C27A U67C", "self-cleavage": 0.14}
{"variant": "A28G", "self-cleavage": 0.67}
{"variant": "A28C", "self-cleavage": 0.56}
{"variant": "C27A U80C", "self-cleavage": 0.66}
{"variant": "C27A U80A", "self-cleavage": 0.17}
{"variant": "A28C U74C", "self-cleavage": 0.7}
{"variant": "A28C U74A", "self-cleavage": 0.9}
{"variant": "U26C U60G", "self-cleavage": 0.3}
{"variant": "C27U A28G", "self-cleavage": 0.37}
{"variant": "C27A C37U", "self-cleavage": 0.21}
{"variant": "A28G G52C", "self-cleavage": 0.42}
{"variant": "A28G G52A", "self-cleavage": 0.76}
{"variant": "C27A A65G", "self-cleavage": 0.25}
{"variant": "A28C U72A", "self-cleavage": 0.38}
{"variant": "A28C U72C", "self-cleavage": 0.61}
{"variant": "A28C U72G", "self-cleavage": 0.4}
{"variant": "A28C U66C", "self-cleavage": 0.28}
{"variant": "C27A U69A", "self-cleavage": 0.08}
{"variant": "A28C U31A", "self-cleavage": 0.55}
{"variant": "A28C U31G", "self-cleavage": 0.38}
{"variant": "A28C U31C", "self-cleavage": 0.35}
{"variant": "C27A C32U", "self-cleavage": 0.3}
{"variant": "A28G C71U", "self-cleavage": 0.15}
{"variant": "A28G C71A", "self-cleavage": 0.14}
{"variant": "C27U A56G", "self-cleavage": 0.52}
{"variant": "C27U A56U", "self-cleavage": 0.21}
{"variant": "C27A U41C", "self-cleavage": 0.24}
{"variant": "C27A U41A", "self-cleavage": 0.07}
{"variant": "A28C A77G", "self-cleavage": 0.51}
{"variant": "A28C A77U", "self-cleavage": 0.22}
{"variant": "A28G G33A", "self-cleavage": 0.22}
{"variant": "A28G G33U", "self-cleavage": 0.16}
{"variant": "C27G U49A", "self-cleavage": 0.28}
{"variant": "A28G C44U", "self-cleavage": 0.28}
{"variant": "A28G C44A", "self-cleavage": 0.12}
{"variant": "A28G C32A", "self-cleavage": 0.13}
{"variant": "A28G C32U", "self-cleavage": 0.24}
{"variant": "C27G A64G", "self-cleavage": 0.23}
{"variant": "C27G C32U", "self-cleavage": 0.17}
{"variant": "A28G A65U", "self-cleavage": 0.15}
{"variant": "A28G A65C", "self-cleavage": 0.21}
{"variant": "A28G A65G", "self-cleavage": 0.33}
{"variant": "U26G U41A", "self-cleavage": 0.28}
{"variant": "U26G U41C", "self-cleavage": 0.4}
{"variant": "A28G C39A", "self-cleavage": 0.06}
{"variant": "A28G C39U", "self-cleavage": 0.57}
{"variant": "C27A A57G", "self-cleavage": 0.08}
{"variant": "A28G C38A", "self-cleavage": 0.29}
{"variant": "A28G C38G", "self-cleavage": 0.25}
{"variant": "A28G C38U", "self-cleavage": 0.54}
{"variant": "C27A U48C", "self-cleavage": 0.11}
{"variant": "U26G U69A", "self-cleavage": 0.21}
{"variant": "U26G U69C", "self-cleavage": 0.37}
{"variant": "A28G G53A", "self-cleavage": 0.78}
{"variant": "A28G G42A", "self-cleavage": 0.46}
{"variant": "A28G G42U", "self-cleavage": 0.26}
{"variant": "A28G G42C", "self-cleavage": 0.18}
{"variant": "U26G G73A", "self-cleavage": 0.89}
{"variant": "U26G C38A", "self-cleavage": 0.58}
{"variant": "A28C A64G", "self-cleavage": 0.52}
{"variant": "C27G A56G", "self-cleavage": 0.14}
{"variant": "A28C A45G", "self-cleavage": 0.39}
{"variant": "A28C U58G", "self-cleavage": 0.2}
{"variant": "A28C U58C", "self-cleavage": 0.27}
{"variant": "U26G U54A", "self-cleavage": 0.19}
{"variant": "C27U A45G", "self-cleavage": 0.17}
{"variant": "C27U A45C", "self-cleavage": 0.19}
{"variant": "A28G G36U", "self-cleavage": 0.15}
{"variant": "A28G G36A", "self-cleavage": 0.15}
{"variant": "U26C U72A", "self-cleavage": 0.36}
{"variant": "U26C U72C", "self-cleavage": 0.65}
{"variant": "U26C U72G", "self-cleavage": 0.41}
{"variant": "C27A A45G", "self-cleavage": 0.22}
{"variant": "C27U U72C", "self-cleavage": 0.24}
{"variant": "C27U U72A", "self-cleavage": 0.18}
{"variant": "A28C A57G", "self-cleavage": 0.45}
{"variant": "C27U G63A", "self-cleavage": 0.22}
{"variant": "C27A U72C", "self-cleavage": 0.19}
{"variant": "C27G U72C", "self-cleavage": 0.11}
{"variant": "C27A A64U", "self-cleavage": 0.2}
{"variant": "C27A A64G", "self-cleavage": 0.33}
{"variant": "A28C U69G", "self-cleavage": 0.2}
{"variant": "A28C U69A", "self-cleavage": 0.17}
{"variant": "A28C U69C", "self-cleavage": 0.19}
{"variant": "A28C U60A", "self-cleavage": 0.4}
{"variant": "A28C U60C", "self-cleavage": 0.29}
{"variant": "A28G C68G", "self-cleavage": 0.14}
{"variant": "A28G C68U", "self-cleavage": 0.48}
{"variant": "A28G C68A", "self-cleavage": 0.17}
{"variant": "U26G U76C", "self-cleavage": 0.45}
{"variant": "U26G U76A", "self-cleavage": 0.32}
{"variant": "C27A C59A", "self-cleavage": 0.11}
{"variant": "C27A C44G", "self-cleavage": 0.07}
{"variant": "C27U U67C", "self-cleavage": 0.16}
{"variant": "U26G U74A", "self-cleavage": 0.41}
{"variant": "U26G U74C", "self-cleavage": 0.39}
{"variant": "C27U U78G", "self-cleavage": 0.38}
{"variant": "C27U U78C", "self-cleavage": 0.44}
{"variant": "C27U U78A", "self-cleavage": 0.16}
{"variant": "C27U U58C", "self-cleavage": 0.15}
{"variant": "A28C C71U", "self-cleavage": 0.41}
{"variant": "A28C C71G", "self-cleavage": 0.08}
{"variant": "A28C G63U", "self-cleavage": 0.41}
{"variant": "A28G C29U", "self-cleavage": 0.52}
{"variant": "C27U A47G", "self-cleavage": 0.28}
{"variant": "C27U A47U", "self-cleavage": 0.44}
{"variant": "C27U U51A", "self-cleavage": 0.17}
{"variant": "C27U U66C", "self-cleavage": 0.15}
{"variant": "A28C U51C", "self-cleavage": 0.51}
{"variant": "A28C U51A", "self-cleavage": 0.53}
{"variant": "A28C U51G", "self-cleavage": 0.38}
{"variant": "C27U U49C", "self-cleavage": 0.15}
{"variant": "C27A U43C", "self-cleavage": 0.18}
{"variant": "C27A U43A", "self-cleavage": 0.39}
{"variant": "U26G U66G", "self-cleavage": 0.2}
{"variant": "U26G U66C", "self-cleavage": 0.16}
{"variant": "A28G A45U", "self-cleavage": 0.31}
{"variant": "A28G A45G", "self-cleavage": 0.4}
{"variant": "A28G A45C", "self-cleavage": 0.33}
{"variant": "C27G U54C", "self-cleavage": 0.3}
{"variant": "A28G G55C", "self-cleavage": 0.39}
{"variant": "A28G G55U", "self-cleavage": 0.68}
{"variant": "A28G G55A", "self-cleavage": 0.33}
{"variant": "C27U A57G", "self-cleavage": 0.17}
{"variant": "A28C U41A", "self-cleavage": 0.2}
{"variant": "A28C U41C", "self-cleavage": 0.28}
{"variant": "U26G U80A", "self-cleavage": 0.35}
{"variant": "U26G U80C", "self-cleavage": 0.51}
{"variant": "A28G A64U", "self-cleavage": 0.24}
{"variant": "A28G A64G", "self-cleavage": 0.46}
{"variant": "A28G G46C", "self-cleavage": 0.08}
{"variant": "A28G G46A", "self-cleavage": 0.09}
{"variant": "A28G G63U", "self-cleavage": 0.8}
{"variant": "A28G G63A", "self-cleavage": 0.38}
{"variant": "C27U C29A", "self-cleavage": 0.15}
{"variant": "U26G U58C", "self-cleavage": 0.36}
{"variant": "C27A U76A", "self-cleavage": 0.55}
{"variant": "C27A U76C", "self-cleavage": 0.21}
{"variant": "C27G A35U", "self-cleavage": 0.16}
{"variant": "U26C U78C", "self-cleavage": 0.42}
{"variant": "U26C U78A", "self-cleavage": 0.51}
{"variant": "U26G U60C", "self-cleavage": 0.11}
